{
  "source": "patent US20120316071A1",
  "about": "(published 2012)",
  "key": {"[1]": {"target": "T1, rHuman IGF-1 sR (insulin-like growth factor-1 soluble receptor), CF (R&D Systems Cat#391-GR) (human, UniProt P08069 31-932)", "T1 construct": "Bought recombinant soluble receptor; The column head prints only 'IGF-1'", "experiment": "MSD multispot ECL, antigen spotted on plate, Fab in solution; blank spot of this row 237"}, "[2]": {"target": "T2, rHuman HGF R/c-MET/Fc Chimera, CF (R&D Systems Cat#358-MT/CF) (human, UniProt P08581 25-932)", "T2 construct": "Bought recombinant protein; also called HGF R/Fc; Fc part of the bought chimera not given", "T2 sequence (P08581 25-932, change not shown)": "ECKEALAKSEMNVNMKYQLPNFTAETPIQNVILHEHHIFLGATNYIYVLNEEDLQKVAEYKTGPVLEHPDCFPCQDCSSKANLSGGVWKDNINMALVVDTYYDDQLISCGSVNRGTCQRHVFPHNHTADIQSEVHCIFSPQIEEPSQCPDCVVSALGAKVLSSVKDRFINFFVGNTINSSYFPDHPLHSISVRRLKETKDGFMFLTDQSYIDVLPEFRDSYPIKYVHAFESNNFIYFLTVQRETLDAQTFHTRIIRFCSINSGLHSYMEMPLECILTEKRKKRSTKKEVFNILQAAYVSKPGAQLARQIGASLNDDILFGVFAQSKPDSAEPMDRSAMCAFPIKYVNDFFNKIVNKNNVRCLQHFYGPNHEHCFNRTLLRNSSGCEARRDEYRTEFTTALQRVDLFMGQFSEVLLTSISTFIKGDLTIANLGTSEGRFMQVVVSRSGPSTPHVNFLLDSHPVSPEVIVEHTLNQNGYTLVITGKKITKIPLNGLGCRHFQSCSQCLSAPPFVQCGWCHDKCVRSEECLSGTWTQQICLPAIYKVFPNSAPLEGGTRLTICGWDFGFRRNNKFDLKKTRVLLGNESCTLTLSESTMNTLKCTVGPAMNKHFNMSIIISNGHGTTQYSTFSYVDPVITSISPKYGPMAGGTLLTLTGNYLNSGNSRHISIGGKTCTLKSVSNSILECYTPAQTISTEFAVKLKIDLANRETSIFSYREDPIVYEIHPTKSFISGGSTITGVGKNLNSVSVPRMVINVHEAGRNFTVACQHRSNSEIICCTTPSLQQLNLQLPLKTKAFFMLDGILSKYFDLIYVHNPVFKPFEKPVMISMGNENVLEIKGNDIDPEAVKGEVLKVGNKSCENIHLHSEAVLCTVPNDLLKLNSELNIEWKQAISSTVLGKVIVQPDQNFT", "experiment": "MSD multispot ECL, antigen spotted on plate, Fab in solution; blank spot of this row 237"}, "[3]": {"target": "T3, rHuman P-Cadherin/Fc Chimera, CF (R&D Systems Cat#861-PC) (human, UniProt P22223 108-654)", "T3 construct": "Bought recombinant protein; Fc part of the bought chimera not given", "experiment": "MSD multispot ECL, antigen spotted on plate, Fab in solution; blank spot of this row 237"}, "[4]": {"target": "T4, rHuman CD44/Fc Chimera, CF (R&D Systems Cat#3660-CD) (human, UniProt P16070 21-220)", "T4 construct": "Bought recombinant protein; Fc part of the bought chimera not given", "experiment": "MSD multispot ECL, antigen spotted on plate, Fab in solution; blank spot of this row 237"}, "[5]": {"target": "T5, rHuman Erythropoietin R/Fc Chimera, CF (R&D Systems Cat#963-ER) (human, UniProt P19235 25-250)", "T5 construct": "Bought recombinant protein; also called EPO R; Epo R/Fc; Fc part of the bought chimera not given", "T5 sequence (looked up)": "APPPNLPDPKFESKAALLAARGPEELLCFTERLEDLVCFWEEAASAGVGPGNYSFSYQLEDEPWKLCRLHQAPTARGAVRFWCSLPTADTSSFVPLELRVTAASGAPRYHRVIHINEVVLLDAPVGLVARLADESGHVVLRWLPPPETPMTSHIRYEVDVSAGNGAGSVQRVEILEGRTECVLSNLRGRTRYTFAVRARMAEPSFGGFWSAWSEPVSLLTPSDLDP", "experiment": "MSD multispot ECL, antigen spotted on plate, Fab in solution; blank spot of this row 237"}, "[6]": {"target": "T6, Recombinant Human DLL4 (R&D Systems Cat#1506-D4/CF) (human, UniProt Q9NR61 27-524)", "T6 construct": "Bought recombinant protein; also called delta-like protein 4; rHuman DLL4", "experiment": "MSD multispot ECL, antigen spotted on plate, Fab in solution; blank spot of this row 237"}, "[7]": {"target": "T7, rHuman Notch-1/Fc Chimera, CF (R&D Systems Cat#3647-TK) (human, UniProt P46531 19-526)", "T7 construct": "Bought recombinant protein; Fc part of the bought chimera not given", "experiment": "MSD multispot ECL, antigen spotted on plate, Fab in solution; blank spot of this row 237"}, "[8]": {"target": "T8, rHuman ErbB2/Fc Chimera, CF (R&D Systems Cat#1129-ER) (human, UniProt P04626 23-652)", "T8 construct": "Bought recombinant protein; Fc part of the bought chimera not given", "experiment": "MSD multispot ECL, antigen spotted on plate, Fab in solution; blank spot of this row 237"}, "[9]": {"target": "T9, rHuman EGF R/Fc Chimera, CF (R&D Systems Cat#344-ER) (human, UniProt P00533 25-645)", "T9 construct": "Bought recombinant protein; Fc part of the bought chimera not given", "experiment": "MSD multispot ECL, antigen spotted on plate, Fab in solution; blank spot of this row 237"}, "[10]": {"target": "T1, rHuman IGF-1 sR (insulin-like growth …)", "experiment": "MSD multispot ECL, antigen spotted on plate, Fab in solution; blank spot of this row 298"}, "[11]": {"target": "T2, rHuman HGF R/c-MET/Fc Chimera, CF (R&D …)", "experiment": "MSD multispot ECL, antigen spotted on plate, Fab in solution; blank spot of this row 298"}, "[12]": {"target": "T3, rHuman P-Cadherin/Fc Chimera, CF (R&D …)", "experiment": "MSD multispot ECL, antigen spotted on plate, Fab in solution; blank spot of this row 298"}, "[13]": {"target": "T4, rHuman CD44/Fc Chimera, CF (R&D Systems …)", "experiment": "MSD multispot ECL, antigen spotted on plate, Fab in solution; blank spot of this row 298"}, "[14]": {"target": "T5, rHuman Erythropoietin R/Fc Chimera, CF …", "experiment": "MSD multispot ECL, antigen spotted on plate, Fab in solution; blank spot of this row 298"}, "[15]": {"target": "T6, Recombinant Human DLL4 (R&D Systems …)", "experiment": "MSD multispot ECL, antigen spotted on plate, Fab in solution; blank spot of this row 298"}, "[16]": {"target": "T7, rHuman Notch-1/Fc Chimera, CF (R&D …)", "experiment": "MSD multispot ECL, antigen spotted on plate, Fab in solution; blank spot of this row 298"}, "[17]": {"target": "T8, rHuman ErbB2/Fc Chimera, CF (R&D …)", "experiment": "MSD multispot ECL, antigen spotted on plate, Fab in solution; blank spot of this row 298"}, "[18]": {"target": "T9, rHuman EGF R/Fc Chimera, CF (R&D …)", "experiment": "MSD multispot ECL, antigen spotted on plate, Fab in solution; blank spot of this row 298"}, "[19]": {"target": "T1, rHuman IGF-1 sR (insulin-like growth …)", "experiment": "MSD multispot ECL, antigen spotted on plate, Fab in solution; blank spot of this row 258"}, "[20]": {"target": "T2, rHuman HGF R/c-MET/Fc Chimera, CF (R&D …)", "experiment": "MSD multispot ECL, antigen spotted on plate, Fab in solution; blank spot of this row 258"}, "[21]": {"target": "T3, rHuman P-Cadherin/Fc Chimera, CF (R&D …)", "experiment": "MSD multispot ECL, antigen spotted on plate, Fab in solution; blank spot of this row 258"}, "[22]": {"target": "T4, rHuman CD44/Fc Chimera, CF (R&D Systems …)", "experiment": "MSD multispot ECL, antigen spotted on plate, Fab in solution; blank spot of this row 258"}, "[23]": {"target": "T5, rHuman Erythropoietin R/Fc Chimera, CF …", "experiment": "MSD multispot ECL, antigen spotted on plate, Fab in solution; blank spot of this row 258"}, "[24]": {"target": "T6, Recombinant Human DLL4 (R&D Systems …)", "experiment": "MSD multispot ECL, antigen spotted on plate, Fab in solution; blank spot of this row 258"}, "[25]": {"target": "T7, rHuman Notch-1/Fc Chimera, CF (R&D …)", "experiment": "MSD multispot ECL, antigen spotted on plate, Fab in solution; blank spot of this row 258"}, "[26]": {"target": "T8, rHuman ErbB2/Fc Chimera, CF (R&D …)", "experiment": "MSD multispot ECL, antigen spotted on plate, Fab in solution; blank spot of this row 258"}, "[27]": {"target": "T9, rHuman EGF R/Fc Chimera, CF (R&D …)", "experiment": "MSD multispot ECL, antigen spotted on plate, Fab in solution; blank spot of this row 258"}},
  "data": [
    {"binder": "Fab VH1-46_IGHD6-6*01_IGHJ1*01 S102A/S103P/S104F/H111F (H:APFF) & L6_IGKJ1*01 S76E (Fab, V domains shown, Fab expressed in E. coli from plasmid A (heavy chain CH1, His6 and Flag tags) and plasmid C (kappa CL)) VH: QVQLVQSGAEVKKPGASVKVSCKASGYTFTSYYMHWVRQAPGQGLEWMGIINPSGGSTSYAQKFQGRVTMTRDTSTSTVYMELSSLRSEDTAVYYCAREEYAPFSAEYFQFWGQGTLVTVSS VL: EIVLTQSPATLSLSPGERATLSCRASQSVSSYLAWYQQKPGQAPRLLIYDASNRATGIPARFSGSGSGTDFTLTIESLEPEDFAVYYCQQRSNWPPWTFGQGTKVEIKR", "values": [
      {"measurement": "ECL signal", "setting": "[1]", "value": 336},
      {"measurement": "ECL signal", "setting": "[2]", "value": 228},
      {"measurement": "ECL signal", "setting": "[3]", "value": 338},
      {"measurement": "ECL signal", "setting": "[4]", "value": 439},
      {"measurement": "ECL signal", "setting": "[5]", "value": 440},
      {"measurement": "ECL signal", "setting": "[6]", "value": 51600},
      {"measurement": "ECL signal", "setting": "[7]", "value": 313},
      {"measurement": "ECL signal", "setting": "[8]", "value": 277},
      {"measurement": "ECL signal", "setting": "[9]", "value": 266}
    ]},
    {"binder": "Fab VH1-46_IGHD6-6*01_IGHJ1*01 S102A/S103P/S104F/H111F (H:APFF) & L6_IGKJ1*01 S76P (Fab, V domains shown, Fab expressed in E. coli from plasmid A (heavy chain CH1, His6 and Flag tags) and plasmid C (kappa CL)) VH: QVQLVQSGAEVKKPGASVKVSCKASGYTFTSYYMHWVRQAPGQGLEWMGIINPSGGSTSYAQKFQGRVTMTRDTSTSTVYMELSSLRSEDTAVYYCAREEYAPFSAEYFQFWGQGTLVTVSS VL: EIVLTQSPATLSLSPGERATLSCRASQSVSSYLAWYQQKPGQAPRLLIYDASNRATGIPARFSGSGSGTDFTLTIPSLEPEDFAVYYCQQRSNWPPWTFGQGTKVEIKR", "values": [
      {"measurement": "ECL signal", "setting": "[10]", "value": 347},
      {"measurement": "ECL signal", "setting": "[11]", "value": 394},
      {"measurement": "ECL signal", "setting": "[12]", "value": 271},
      {"measurement": "ECL signal", "setting": "[13]", "value": 313},
      {"measurement": "ECL signal", "setting": "[14]", "value": 371},
      {"measurement": "ECL signal", "setting": "[15]", "value": 29800},
      {"measurement": "ECL signal", "setting": "[16]", "value": 402},
      {"measurement": "ECL signal", "setting": "[17]", "value": 260},
      {"measurement": "ECL signal", "setting": "[18]", "value": 331}
    ]},
    {"binder": "Fab VH1-46_IGHD6-6*01_IGHJ1*01 S102A/S103P/S104F/H111F (H:APFF) & L6_IGKJ1*01 S76Q (Fab, V domains shown, Fab expressed in E. coli from plasmid A (heavy chain CH1, His6 and Flag tags) and plasmid C (kappa CL)) VH: QVQLVQSGAEVKKPGASVKVSCKASGYTFTSYYMHWVRQAPGQGLEWMGIINPSGGSTSYAQKFQGRVTMTRDTSTSTVYMELSSLRSEDTAVYYCAREEYAPFSAEYFQFWGQGTLVTVSS VL: EIVLTQSPATLSLSPGERATLSCRASQSVSSYLAWYQQKPGQAPRLLIYDASNRATGIPARFSGSGSGTDFTLTIQSLEPEDFAVYYCQQRSNWPPWTFGQGTKVEIKR", "values": [
      {"measurement": "ECL signal", "setting": "[19]", "value": 188},
      {"measurement": "ECL signal", "setting": "[20]", "value": 386},
      {"measurement": "ECL signal", "setting": "[21]", "value": 364},
      {"measurement": "ECL signal", "setting": "[22]", "value": 287},
      {"measurement": "ECL signal", "setting": "[23]", "value": 430},
      {"measurement": "ECL signal", "setting": "[24]", "value": 48300},
      {"measurement": "ECL signal", "setting": "[25]", "value": 255},
      {"measurement": "ECL signal", "setting": "[26]", "value": 264},
      {"measurement": "ECL signal", "setting": "[27]", "value": 324}
    ]}
  ]
}
